We go through one substance from article PMC10748421.

The assay has as its target full-length recombinant human BAX (human) (UniProt Q07812). Nature of the assay: not stated; data not shown; BAX stocks at high concentrations.

As to “full-length recombinant human BAX (from UniProt Q07812 1-192) (natural protein)”, the stoichiometry N (commonly a count of units in the complex or per binding partner) stood at 2.
